B1: recombinant mouse ECM1 protein: Recombinant mouse extracellular matrix protein 1 added to the culture medium (protein, UniProt Q61508 20-559, looked up)
Extracellular matrix protein 1: ASEGAFKASDQREMTPERLFQHLHEVGYAAPPSPPQTRRLRVDHSVTSLHDPPLFEEQREVQPPSSPEDIPVYEEDWPTFLNPNVDKAGPAVPQEAIPLQKEQPPPQVHIEQKEIDPPAQPQEEIVQKEVKPHTLAGQLPPEPRTWNPARHCQQGRRGVWGHRLDGFPPGRPSPDNLKQICLPERQHVIYGPWNLPQTGYSHLSRQGETLNVLETGYSRCCRCRSDTNRLDCLKLVWEDAMTQFCEAEFSVKTRPHLCCRLRGEERFSCFQKEAPRPDYLLRPCPVHQNGMSSGPQLPFPPGLPTPDNVKNICLLRRFRAVPRNLPATDAIQRQLQALTRLETEFQRCCRQGHNHTCTWKAWEGTLDGYCERELAIKTHPHSCCHYPPSPARDECFAHLAPYPNYDRDILTLDLSRVTPNLMGQLCGSGRVLSKHKQIPGLIQNMTIRCCELPYPEQACCGEEEKLAFIENLCGPRRNSWKDPALCCDLSPEDKQINCFNTNYLRNVALVAGDTGNATGLGEQGPTRGTDANPAPGSKEE

Assays:
[1] = tested on: primary stellate cells (HSC); assay: Self-activation of primary stellate cells (HSC) cultured in vitro, related gene expression by RT-PCR; type: cell-based; settings: ECM1 protein 50 µg/ml, cRGD 10 µg/ml; WT mouse HSC cultured in vitro 2 weeks, vs unrelated IgG (NC)
Description: B: Primary stellate cells (HSC) from the liver of wild-type mouse (WT) are isolated and cultured in vitro for 2 weeks. Recombinant mouse ECM1 protein ([…]), cRGD ([…]) or unrelated IgG protein ([…]) are added to the culture medium as negative control (NC). Changing fresh culture medium every 3 days. Two weeks later, It is lysed with TRIZO and mRNA is extracted, and cDNA is obtained by reverse transcription. Finally, the expression of related genes is detected by RT-PCR.
The primary stellate cells (HSC) of the mouse liver will self-activate during in vitro culture. This is because of the change in culture conditions, the Latent TGF-β1 secreted by the cells will be activated by integrin αv on the cell surface to activate stellate cells (HSC). In this process, the addition of integrin αv inhibitor (cRGD) or TGF-β1 neutralizing antibody will inhibit the self-activation of stellate cells (HSC).
Therefore, primary stellate cells (HSC) from the liver of wild-type mice (WT) were isolated and cultured in vitro for 2 weeks. Recombinant mouse ECM1 protein ([…]), cRGD ([…]) or unrelated IgG protein ([…]) were added to the culture medium as negative control (NC). Changing fresh culture solution every 3 days. […] Finally, the expression of related genes was detected by RT-PCR to determine the activation degree of primary stellate cells (HSC).

[2] = tested on: Latent TGF-β1 activation on the surface of stellate cells (HSC); assay: TGF-β1 activity reporter co-culture of primary HSC with NIH-3T3 luciferase reporter cells; type: cell-based; settings: 50 g/ml in culture medium, 16 hours of culture, WT mouse HSC with NIH-3T3 reporter cells, vs unrelated IgG (NC)
Description: A: Primary stellate cells (HSC) from the liver of wild-type mice (WT) are isolated and co-cultured with NIH-3T3 cells containing the TGF-β1 activity reporter system. Recombinant mouse ECM1 protein ([…]), cRGD ([…]) or unrelated IgG protein ([…]) are added to the culture medium as negative control (NC). After 16 hours of the culture, the cells are lysed, and Luciferase activity in the lysate is detected.
The process of Latent TGF-β1 activation to TGF-β1 is a transient effect. Activated TGF-β1 will bind to TGF-β1 receptor on the adjacent cell surface, phosphorylating the downstream SMAD protein, and then activating the downstream gene expression. In order to better detect the process of Latent TGF-β1 activation to TGF-β1, we used a co-culture system to detect the […] activation process that occurs on the surface of HSC stellate cells. A luciferase reporter gene was stably transfected into NIH-3T3 cells. There are 4 repeated SMAD binding sites in the upstream of this reporter gene. […]
Firstly, primary stellate cells (HSC) of wild-type mouse (WT) liver were isolated and co-cultured with NIH-3T3 cells containing TGF-β1 activity reporter system. […] After 16 hours of culture, the cells were lysed, and Luciferase activity in the lysate was detected. […]

Row | Molecule | activation of stellate cells (HSC), expression of related genes by RT-PCR [1] | activation of Latent TGF-β1 on the surface of stellate cells (HSC), Luciferase activity [2]
1 | cRGD [reference compound] | significantly inhibit | 
2 | B1 | significantly inhibit | significantly inhibit

Source: US20220095596A1, “USE OF ECM1 GENE-KNOCKOUT MOUSE IN SCREENING OF ANTI-HEPATIC FIBROSIS DRUG” (CENTER FOR EXCELLENCE IN MOLECULAR CELL SCIENCE, CHINESE …, priority 2018, published 2022)
